Literature values in PMC5654615.
Like-named read-outs stand apart in the source and are kept apart here.

Tests used:
TLR4 (Homo sapiens) = TLR4 (Homo sapiens) (UniProt O00206); experiment: SPR
MD2 (Homo sapiens) = MD2 (Homo sapiens) (UniProt Q9Y6Y9); experiment: SPR
[1] = molecular target: TLR4/MD2 complex (Homo sapiens) (UniProt O00206); experiment: SPR
[2] = molecular target: TLR4/MD2 complex (Homo sapiens) (UniProt O00206)

Chain of UniProt Q9Y6Y9 (Q9Y6Y9 19-160): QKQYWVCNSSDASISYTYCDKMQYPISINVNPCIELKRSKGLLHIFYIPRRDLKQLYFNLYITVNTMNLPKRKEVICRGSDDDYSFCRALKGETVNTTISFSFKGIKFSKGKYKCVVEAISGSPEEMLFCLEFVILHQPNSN

| Substance | Kd (TLR4 (Homo sapiens)) [µM] | Kd (MD2 (Homo sapiens)) [µM] | Kd [1] [µM] | Kd [2] [µM] |
| --- | --- | --- | --- | --- |
| CIRP (from UniProt Q14011) | 0.617 | 0.302 | 0.239 | – |
| HMGB1 (from UniProt P09429) | – | – | – | 1.5 |
